How the values were obtained:
P19 cells = assay: P19 cardiac differentiation (cTnT immunofluorescence, beating clusters, immunoblot); assay type: cell-based, mouse
Experimental: FIG. 9A Schematic for cardiac differentiation of pluripotent P19 cells. FIG. 9B Immunofluorescence results for the cardiac-specific marker Troponin T (cTnT) in P19 cardiac cells at day 7 of differentiation in the presence of varying doses of hCT1 ranging from 0-500 ng/mL (0-25 nM). Quantification of expression of cTnT is shown on the graph. FIG. 9C Quantification of beating clusters in P19 cardiac cells at day 13-15 of differentiation in the presence of varying doses of hCT1. FIG. 9D Immunoblot for the cardiac markers cTnT and GATA4 in whole cell lysates from a P19 cardiac differentiation timecourse in the presence and absence of hCT1.
Protection during conditions of cardiac pathologies can be conferred not only by the activation of pro-survival/pro-angiogenic signaling pathways but also by inducing the differentiation of cardiogenic progenitor cells. […] To test the effect of CT1 on cardiomyocyte differentiation, undifferentiated cells were induced to undergo cardiac differentiation with 0.8% DMSO and aggregation. At day 0, P19 cells are plated onto non-adherent bacterial petri dishes in the presence of MEMα growth media with 0.8% DMSO (control) or in the presence of different doses of hCT1-containing MEMα media ranging from 0.5 nM (10 ng/mL) to 25 nM (500 ng/mL) with 0.8% DMSO. P19 cells are then allowed to aggregate for 4 days. Finally, aggregates are then transferred onto adherent tissue culture dishes in the same media (this time in the absence of DMSO) to allow for subsequent cardiac differentiation (FIG. 9A, adapted from Skerjanc et al. 1999; Trends in Cardiovascular Medicine, volume 9, pages 139-143). The cardiac specific marker Troponin T (cTnT) was used (by immunofluorescence) to identify differentiated cells.
Differentiation was also followed up to day 15 and the number of visually beating clusters was used to assess cardiac differentiation. […]

cardiomyocytes = system: cardiomyocytes
Experimental: FIG. 7B Quantitation of cell viability analysis as shown in (A). FIG. 7C Quantification of PI cell viability FACS analysis following a 24 hrs treatment of cardiomyocytes with H2O2 in the presence or absence of hCT1. Pre-treatment with PI3K inhibitor (LY294002, 50 μM) before H2O2 was also tested.
Cardiomyocytes were treated with control serum-free media or with H2O2 (300 μM, 1 hr) to induce cell death in the presence or absence of hCT1 (0.5 nM). After 24 hrs, cells were incubated with the cell viability marker Propidium Iodide (PI) (1 μg/mL) and analyzed by FACS (Ex: 535 nm, Em: 617 nm) for viable cells; i.e. cells inside the gated region of the side scatter (SS) versus PI plot (FIG. 7A). […] The PI3K pathway is a critical feature of physiological cardiac adaptive compensation and is a key protective feature distinguishing it from pathological adaptive compensation. Therefore, cardiomyocytes were pre-treated with a PI3K inhibitor (LY294002, 50 μM) before CT-1/H2O2 treatment.

Fischer CDF rats = assay: SU5416/hypoxia model of severe pulmonary hypertension, weekly echocardiography and hemodynamics; assay type: in vivo, rat
Experimental: FIGS. 5A and 5B. Human Cardiotrophin-1 (hCT1) improves RV adaptation to severe Pulmonary Hypertension (PH) in Fischer rats.
Given that CT-1 induces phenotypic characteristics associated with beneficial RV physiologic adaptive compensation, a prediction was made by the Applicants that CT-1 would enhance RV adaptation to increased afterload in a disease setting. This supposition was tested to examine whether CT-1 protein can improve the ability of the RV to functionally adapt and limit or reduce right heart failure that is associated with pulmonary arterial hypertension (PAH), a form of PH caused by abnormalities in the lung vasculature (FIGS. 5A and 5B). PAH has a highly tractable and reproducible rodent equivalent, the […]/hypoxia rat model, which recapitulates many key aspects of the disease including progressive right heart failure in the Fischer CDF™ rat strain, a feature that is not observed in the Sprague Dawley strain in the same model of PH. Use of this PH model offers a clear advantage in providing an accurate preclinical disease setting to test the utility of CT-1, rather than simply testing co-administration of CT-1 with general […] stimulants such as PE or ISO in vivo. […] Also, right heart failure drives symptoms and prognosis in many forms of PH, including in Group 2 PH caused by increases in left ventricular filling pressures, of which heart failure with preserved ejection fraction (HFpEF) is an important example which is increasingly recognized as one of the greatest therapeutic challenges in clinical cardiology today. PH was induced by administering a single subcutaneous injection of SU5416 (20 mg/kg) to Fischer CDF™ rats followed by exposure to chronic hypoxia (8-10% O2) for 3 weeks. After these 3 weeks, rats were recovered for 24 hours in normoxia before implantation of PBS filled (control) or hCT-1 filled (6 μg/kg/hr delivery) osmotic minipumps. Control rats were exposed to normoxic conditions throughout the study and only treated with PBS (FIG. 5A). Echocardiography analyses were conducted weekly and the following parameters were measured: Right Ventricle Posterior Wall thickness (RVPW), Ratio of Right Ventricle Internal Diameter to Left Ventricle Internal (RVID/LVID), Pulmonary Artery Acceleration Time (PAAT), Fractional Area Change (FAC), and Cardiac Output (CO). At 3 weeks (prior to pump implantation), there was already a marked and significant increase in the RVID/LVID ratio, indicative of developing RV failure in this model of severe PH. In PH animals receiving saline, there was a progressive increase in this ratio over the subsequent 3 weeks, associated with other evidence of progressive RV failure, such as worsening contractile function (Fractional Area Shortening) and reductions in cardiac output.

[1] = hCT-1 6 μg/kg/hr minipump from week 3
[2] = hCT-1 6 μg/kg/hr minipump from week 3, over 3 weeks

B1: hCT1: Recombinant human CT1 protein; 201 amino acid sequence, GenBank Accession Nos AAD12173 and AAA85229 (human) (protein, UniProt Q16619 1-201, looked up)
Cardiotrophin-1: MSRREGSLEDPQTDSSVSLLPHLEAKIRQTHSLAHLLTKYAEQLLQEYVQLQGDPFGLPSFSPPRLPVAGLSAPAPSHAGLPVHERLRLDAAALAALPPLLDAVCRRQAELNPRAPRLLRRLEDAARQARALGAAVEALLAALGAANRGPRAEPPAATASAASATGVFPAKVLGLRVCGLYREWLSRTEGDLGQLLPGGSA
GATA4 and cTnT expression (immunoblot) (P19 cells; 10 ng/mL (0.5 nM) hCT1, days 5 and 7): significantly inhibited GATA4 and cTnT expression | differentiation of cardiac cells (cTnT+/DAPI+) (P19 cells; day 7, any dose 0.5 nM to 25 nM): significantly inhibited the differentiation of cardiac cells | number of beating clusters (P19 cells; days 13, 14, and 15): no beating clusters were detected | viability improved vs. H2O2 (cardiomyocytes; H2O2 in the presence of hCT1 (FIG. 7C)): 154% | increase in viability upon pre-treatment (cardiomyocytes; hCT1 0.5 nM, 1 hour H2O2 300 μM, viability at 24 hours (FIG. 7B)): ~34% | RV afterload (right ventricular systolic pressure, RVSP) (Fischer CDF rats; [1]): without any alteration in the RV afterload | right atrial pressure (RAP) (Fischer CDF rats; [1]): significant decrease in right atrial pressure | RVID/LVID ratio (Fischer CDF rats; [2]): progressive improvement in the RVID/LVID ratio | cardiac output (Fischer CDF rats; [2]): improvements | contractile function (Fischer CDF rats; [2]): improvements in contractile function

Reference: US9962427B2, “Treatment of right ventricular dysfunction due to pressure overload” (OTTAWA HOSPITAL RESEARCH INSTITUTE, priority 2016, dated 2018)
